From the nanobody polyreactivity screen of Harvey et al. (2022)

Assay: yeast display, Sf9 membrane polyspecificity reagent, FACS + sequencing; frameworks hold sequencing errors
Summary of the method: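 Polyreactivity labels are assigned by the sorting gate from which each nanobody was recovered. The gates were low and high (top ~1%), set on anti-HA fluorescence for expression and streptavidin fluorescence for reagent binding. Before sorting, galactose-induced (36–48 hours) yeast display cells were stained for 1 hour at 4 °C with 10% biotinylated, detergent-solubilized Sf9 membrane reagent.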

Sequence	polyreactivity (PSR sort gate)
QVQLVESGGGLDQAGGRLRLSCAASGRTFNVNVMGWYRQSPGKERELVAAIRYTGGSTYADSVKGRFTISRDNAKNTVYLQMNSLKPEDTAVDYCNADTFFPFDHGMDYWGQGTQVTVSS	low polyreactivity
QDQLVESGGGLVQAGGSLRLSCAASGSIFSYYAMGWYRQAAGKERELVAAINDGGGSTYYADSVKGRFTISRDNAKNTVYLQMNSLKPEDTAVYYCAAEWSWGPYRYDYWGQGTQVTVSS	high polyreactivity
QVQLVESGGGLVQAGGSLRLSSPASGSIYRKYGMGSYRQAPGKERELVATITSSGGSTYYADSVKGRFSISRDNAKKTVYLQMNSLKPEDTAVYYCAADYYYLPGSYQVRAMYYWGQGTQVTVSS	high polyreactivity
QVQLVESGGRLVQARGSLRLICAASGLIIAYYTMGWYRQAPGKEREFVAVIDWIGVSTYYADSVKGRFTISRDNAKNTVYLQMNSLKPEDTAVYYCNADNAFPSPKSSLDYWGQGTQVTVSS	low polyreactivity
QVQLVESGGGLVQAGGSLRLSCAASGSTFEYYAMGWYRQAPGKERELVAAISWSGGSTYYADSVKGRFTISRDNAKNTVYLQMNSLKPEDTAVYDCATDTGTSFYGINYGYDYWGQGTQVTVSS	low polyreactivity
QVQLVESGGGLVQAGGSLRLSCAASGRIFIHYAMGWYRQAPGKERELVAAISWGGGRTYYADSVKGRFTISRDNAKNTVYLQMNSLKPEDTAVYYCAAAGRGSGYDYWGQGTQVTVSS	high polyreactivity
QVQLVESGGGLVQAGGSLSLSCAASGRTFVYYAMGWYRQAPGKERELVAAISSSGGRTYYADSVKGRFTISRDNAKNTVYLQMNSLKPEDTAVYYCAARRLSPIYDSWGQGTQVTVSS	high polyreactivity
QVQLVESGGGLVQAGGSLRLSCDASGSTFGTYAMGWYRQAPGKERELVATITYRGGSTNYADSVKGRFTISRDNAKNTVYLQMISLKPEDTAVYYCAADYFSQLAGIFDYWGLGTQVTVSS	low polyreactivity
QVQLEDSGGGLVQAGARLRLSCAASGSTFAQNAMGRYRQAPGKERELVAAITYSGGSTYYADSVKGRFSISRDNAKNTVYLQMNSLKPEDTAVYYCAADVWWSYYRYDYWGQATQVTVSS	low polyreactivity
QVQLVESGGGLVQAGGSLRLSCAASGGTFWIYAMGSYRQAPGKERELVAGISHGDSTYYADSVKGRFTISRDNAKNTVYLQMNSLKPEDTAVYYCARDYRNPPFAYEYWGQGTQVTVSS	low polyreactivity
QVQLVESGGGLVQAGGSLRLSCAASGIILGKNAMGWYRQAPGKERELVASITSGAGITYYADSVKGRFTISRDTAKNTVYLQMNSLKPEDTAVYYCNTYPYLWGQGTQVTVSS	low polyreactivity
QVQLVESGGGLVQAGGSLRLSCAASGSIFRGYAMGCYRQAPGKERELVAAITSGGSTNYADSVKGRFTISRDNAKNTVYLQMNSLKPEDTAVYYCAKDLALVAPLSDYWGQGTQVTVSS	low polyreactivity
QVQLVESGGGLVQAGGSLRLSCAASGIIFWYNAMGWYRQAPGKERELVASISTGGRTYYADSVKGRFTISRDNAKNTVYLQMNSLKPEDTAVYYCAAASRVGFLYCYWGQGTQVTVSS	low polyreactivity
QVQLVESGGGLVQAGGSLRLSCAASGMIFGYYAMGWYRQAPAKERELVAAITGSGGRTYYADSVKGRFTISRDNAKNTVYLQMNSLKTEDTAVYYCADRGVNGMGYWGQGTHVTVSS	high polyreactivity
QVQLVESGGGLVQAGGSLRLSCDASGSTRIYAMGWYTQAPGKERELVAAISWTGGRTYYADSVKGRFTISRDNAKYTVYLQMNSLKPEDTAVYYCAAKGSGRDYWGQGTLVTVSS	high polyreactivity
QVQLVESGGGLLQAGGSLRLSCAASGRIFGWYAMGWYRQAPGKERELVAAISRGGTRTNYADSVKGRFTISRDNSKNTVYLQMNSLKPEDTAVYYCAAGGSWCQNGYWGQGTQVTVSS	high polyreactivity
QVQLVESGGGLVPAGGSLRLSCAASGSIFPVYAMGWYRQAPGKERELVASISTGGSTYYADSVKGRFTISRDNAKNTVYLQMNSLKPEDNAVYYCDATGWAYGYGYWGQGTQVTVSS	low polyreactivity
QVQLVESGGGLVQAGGSLRLSCAASGRIFWYYSMGRYRQAPATEREVVATITTRSGSTYYADSVKGRFTISRDNAKNTVYLQMNSMKPEDTAGYYCAADWPLLYTGSHSQTKYGYWGQGTQVTVSS	high polyreactivity
QVQLVESGGGLVQAGGRLRLSCAASGSTLEINGMGWYRQAPGKEREFVADISIGGDTNYADSVKGRFTISRDNAKNTEMNSLKPEDTAVYYCNTDYFGSLVVVIFDYWGQGTQVSVSS	low polyreactivity
QVQLVESGGGLVQAGGSHRLSCAASGSIFTINPMGWYRQAPGKERELVAAIRSGGGTNYADSVKGRFTISRDNAKNTVYLQMISLKPEDTAVYYCAADLWAGKYGEYDYWGQGTQVTVSS	high polyreactivity
QVQLVESGGGLVQAGGSLRLSCAASGFTFYGYAMGWYRQAPGKDRELVARITVRGSTTYYADSVKGRFTISRDNAKNTVYLQMNSLKPEDTAFYYCNASWVYSRFRPLDYDLDYWGQGTQVTVSS	low polyreactivity
QVQLVESGGGLVQAGGSLRLSCAASGRTFYNYAMGWYRQAPGKERELVAAIRGSGGSTYYADSVKGRFTISRDNAKNTVYLQMNSLKPEETAVYYCNAVSQSSEYDYWGHGTQVTVSS	high polyreactivity

Sequence	polyreactivity (PSR sort gate)
QDHLVESAAGLVQAGGRLRLSCAASGSTLYDYAMVWSRKAPGKDRELVAAIRTGGSTYYADSVKGRFTISRDNAKNTVYLQMNSLKTEDTAVYYCAADHGYQYGYWGQGTQVTVSS	low polyreactivity
QVQLVESGGGLVQAGGSLRLSCAASGSTIVTKAMGWYRQAPGKERELVAAISFSVGRTYYADSVKGRFTISRDNAKNTVYLQMNSLKPEDTAVYYCAAGLRVTPALHSYGYWGQGTQVTVSS	high polyreactivity
QVQLVESGGGLVQAVGSIRLSCAASGSIFRKYSIRWNRQAPGKDRELVAAISWSGGGTYYADSVKGRFTISRDNAKNTVYLQMNSLKPEDTAVYYCAADPYWDSKGVYWGQGTQVTVSS	low polyreactivity
QVQRVESGGGLVQAGGSLRLSCAASGSIFRGYAMGWYRQEPEKERELVAAISRRGGSTYYADSVKGRFTISRDNAKNTVYLQMNSLKPEDTAVYYCAIDGTGAGTYDYWGQGTQVTVSS	low polyreactivity
QVQLVESGGGLVQAGGSLRLSCAASGSTFGYNAMGWYRQAPGKERELVAAISSDGSTNYADSVKGRFTISRDNSKNTVYLQMNSLKPEDTAVYYCAADDNGAWVRMDYWGHGTQVTVSS	low polyreactivity
QVHLVESGGGLVQAGGSLRLSCAASGSTFYNNAMGLYRQAPGKERELVASISLSAGSTYYADSVKGRFTISRDNAKNTVYLQMNSMKPEDTAVYYCAAESVAILVLVYPKGYGYWGQGTQVTVSS	low polyreactivity
QVQLVESGGGLVQAGGSLRLSCAASGSTLRTYAMGWYRQAPGKERELVAAISFSTTSTYYADSVKGRFTISRDNAKNTVYLQMNSLKPEDTAGYDCAAGPRTRYQPDLPGCYYSWGQGTQVTVSS	high polyreactivity
QVQLVESGGGLVQAGGSLRLSCAASGSTSRGYAMGWYRPAPGKERELVASITLSGGNTYYADSVKGRFTISRDSAKNTVYFQMYSLKPVDTAVYYCAADDRGSSYGHFTVEYGNWGQGTQVTVSS	low polyreactivity
QVHLQESGGGLVQAGGSLRLSCAASGNNSPVGVLGRYRQAPGKERELVATINFGGSSYYADSVKGRFTISRDNAKNTVYLQMNSLKREDTAVYYFAYCGQGTQVTVSS	low polyreactivity
QVQLVESGGGLVQAGGSLRLSCAASGFIFRYYTMGWYRQAPVKERELVASITRSGGSTYYADSVKGRFTISRDNGKNTVYLQMNSLKPEDTAVYYCAAVVYLRFRNSYWGQGTQVTVSS	high polyreactivity
QVQLVESGGGLVQAGGSLRLSCAASGSIFLSYDMGWYRQAPGKERELVAAITQSGGSTYYADSVKGRFTISRDNAKNTVYLQMNSLKPEDTAVYYCAKEGDSGYWFDYWGQGTQVTVSS	low polyreactivity
QVQLVESGGGLVQAGGSLRLSCAASGRTFSRYAMGWYRPAPGKERELVAAISSSGGSTYYADSVKGRFTISRDHAKNTVYLQMNSLKPEDTAVYYCAKYFIRDNRYDYWGQGTQVTVSS	high polyreactivity
QVQLVESGGGLVQAGGSLRLSCAASGSTFGENDRGWSRQEPGKERELVAAITWSGGSTYYADSVKGRFTISRDNAKNTVYLQMNSLKPEDTAVYYCAADRYWIVLYDYWGQGTQVTVSS	low polyreactivity
QVQLVESGGGLVQAGGSLRLSCAASGFTFGGYARGWSRQAPRTERELVAAISSSAGRTYYADSVKGRFTISRDNAKNTVYVQMNRLKPEDTAVYYCNTGGVYGPRRYYYWGQGTQVTVSS	high polyreactivity
QVQLVESGGGLVQAGGSLRLSCAASGFIFATYTMGWYRQAPGKERELVAAITWRGGSTYYADSVKGRFTISRDNAKNTVYLQMNSLKPEDTAVYYCAAPDVYSYRYVEDDYWGQGTQVTVSS	low polyreactivity
QVQLVESGGGLVQAGGSLRLSCAASGSTFFPYAMGWYRQAPGKERELVATINYSGGGTYYADSVKGRFTISRDNAKNTVYLQMNSLKPEDTAVYYCANTLARFDRGYYWGQGTQVTVSS	low polyreactivity
QVQLVESGGGLVQAGGSLRLSCAASGRTFWFNAMGWYRQAPGKEREFVAAISWRGGSTYYADSVKGRFTISRDNAKNTVYLQMNSLKPEDTAVYYCAVDGEYYSDVYLYYRWDDYWGQGTQVTVSS	low polyreactivity
QVQLVESGGGLVQAGVSLRLSCAASGFTFPWYAMGWYLQAPGKERELVAAISWTGGSTYYADSVKGRFTSSRDNPKNTVNLQMLSLKPEDTAVYYCAVGIYDHLYNHEYWGHGTQVTVSS	low polyreactivity
QVQLVESGGGLVQAGGSLRLSCAASGSIFQYYPMGWYRQAPGKERELVAAINSGGRTNYADSVKGRFTISRDNAKNTVYLQMNSLKPEDTAVYYCAKRLSTRASFGEEDSWGQGTQVTVSS	low polyreactivity
QVQLVESGGGLVQAGGSLRLICAASGFTFAYYAMGWYRQAPGKERELVAAISSGGSTYYADSVKGRFTISRDNAKNTVYLQMNSLKPEDTAVYYCAARGGRPLIHHWPWYSWKYDYWGQGTQVTVSS	low polyreactivity
QVQLVESGGGLVQAGGSLRLSCAASGRIFYVYALGWYRQAPGKERELVAAIDWNGGTTYYADSVKGRFTISRDNAKNTVYLQMNSLKPEDTAVYYCAVSLQGYNQVDYYYWGQGTQVTVSS	high polyreactivity
